Assay results reported in US20150344570A1 (published 2015).

T1: FcγRIIa R (human, UniProt P12318 34-217)
T1 construct: extracellular domain; also called FcgRIIa R type; 2aR
T1 sequence (looked up): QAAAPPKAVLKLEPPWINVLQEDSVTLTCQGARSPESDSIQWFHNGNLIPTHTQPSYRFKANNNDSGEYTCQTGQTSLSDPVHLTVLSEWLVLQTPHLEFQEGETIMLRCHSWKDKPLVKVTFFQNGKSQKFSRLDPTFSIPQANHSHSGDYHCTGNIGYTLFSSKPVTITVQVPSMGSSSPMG


What follows are binders tested against T1, FcγRIIa R (assay: SPR (Biacore), captured antibody, FcγR as analyte; relative binding activity).

Binder | He/Con_2aR | Ho/Con_2aR
GpH7-A5/GpH7-B3 variant A327_09D/GpL16-k0 (antibody, human IgG1, kappa, also called He Ab A327_09D) heavy 1: not shown heavy 2: not shown light: DIVMTQSPLSLPVTPGEPASISCQASESLVHSNRNTYLHWYLQKPGQSPQLLIYKVSNRFSGVPDRFSGSGSGTDFTLKISRVEAEDVGVYYCSQNTHVPPTFGQGTKVEIERTVAAPSVFIFPPSDEQLKSGTASVVCLLNNFYPREAKVQWKVDNALQSGNSQESVTEQDSKDSTYSLSSTLTLSKADYEKHKVYACEVTHQGLSSPVTKSFNRGEC | 124 % (GpH7-A5/GpH7-B3/GpL16-k0 = 100) | –
GpH7-A5/GpH7-B3 variant A330_12R/GpL16-k0 (antibody, human IgG1, kappa, also called He Ab A330_12R) heavy 1: not shown heavy 2: not shown light: DIVMTQSPLSLPVTPGEPASISCQASESLVHSNRNTYLHWYLQKPGQSPQLLIYKVSNRFSGVPDRFSGSGSGTDFTLKISRVEAEDVGVYYCSQNTHVPPTFGQGTKVEIERTVAAPSVFIFPPSDEQLKSGTASVVCLLNNFYPREAKVQWKVDNALQSGNSQESVTEQDSKDSTYSLSSTLTLSKADYEKHKVYACEVTHQGLSSPVTKSFNRGEC | 104 % (GpH7-A5/GpH7-B3/GpL16-k0 = 100) | –
GpH7-A5/GpH7-B3 variant A330_15Y/GpL16-k0 (antibody, human IgG1, kappa, also called He Ab A330_15Y) heavy 1: not shown heavy 2: not shown light: DIVMTQSPLSLPVTPGEPASISCQASESLVHSNRNTYLHWYLQKPGQSPQLLIYKVSNRFSGVPDRFSGSGSGTDFTLKISRVEAEDVGVYYCSQNTHVPPTFGQGTKVEIERTVAAPSVFIFPPSDEQLKSGTASVVCLLNNFYPREAKVQWKVDNALQSGNSQESVTEQDSKDSTYSLSSTLTLSKADYEKHKVYACEVTHQGLSSPVTKSFNRGEC | 102 % (GpH7-A5/GpH7-B3/GpL16-k0 = 100) | –
GpH7-A5/GpH7-B3 variant E333_04F/GpL16-k0 (antibody, human IgG1, kappa, also called He Ab E333_04F) heavy 1: not shown heavy 2: not shown light: DIVMTQSPLSLPVTPGEPASISCQASESLVHSNRNTYLHWYLQKPGQSPQLLIYKVSNRFSGVPDRFSGSGSGTDFTLKISRVEAEDVGVYYCSQNTHVPPTFGQGTKVEIERTVAAPSVFIFPPSDEQLKSGTASVVCLLNNFYPREAKVQWKVDNALQSGNSQESVTEQDSKDSTYSLSSTLTLSKADYEKHKVYACEVTHQGLSSPVTKSFNRGEC | 102 % (GpH7-A5/GpH7-B3/GpL16-k0 = 100) | –
GpH7-A5/GpH7-B3 variant E333_09D/GpL16-k0 (antibody, human IgG1, kappa, also called He Ab E333_09D) heavy 1: not shown heavy 2: not shown light: DIVMTQSPLSLPVTPGEPASISCQASESLVHSNRNTYLHWYLQKPGQSPQLLIYKVSNRFSGVPDRFSGSGSGTDFTLKISRVEAEDVGVYYCSQNTHVPPTFGQGTKVEIERTVAAPSVFIFPPSDEQLKSGTASVVCLLNNFYPREAKVQWKVDNALQSGNSQESVTEQDSKDSTYSLSSTLTLSKADYEKHKVYACEVTHQGLSSPVTKSFNRGEC | 103 % (GpH7-A5/GpH7-B3/GpL16-k0 = 100) | –
GpH7-A5/GpH7-B3 variant E333_15Y/GpL16-k0 (antibody, human IgG1, kappa, also called He Ab E333_15Y) heavy 1: not shown heavy 2: not shown light: DIVMTQSPLSLPVTPGEPASISCQASESLVHSNRNTYLHWYLQKPGQSPQLLIYKVSNRFSGVPDRFSGSGSGTDFTLKISRVEAEDVGVYYCSQNTHVPPTFGQGTKVEIERTVAAPSVFIFPPSDEQLKSGTASVVCLLNNFYPREAKVQWKVDNALQSGNSQESVTEQDSKDSTYSLSSTLTLSKADYEKHKVYACEVTHQGLSSPVTKSFNRGEC | 101 % (GpH7-A5/GpH7-B3/GpL16-k0 = 100) | –
GpH7-A5/GpH7-B3 variant E269_09D/GpL16-k0 (antibody, human IgG1, kappa, also called He Ab E269_09D) heavy 1: not shown heavy 2: not shown light: DIVMTQSPLSLPVTPGEPASISCQASESLVHSNRNTYLHWYLQKPGQSPQLLIYKVSNRFSGVPDRFSGSGSGTDFTLKISRVEAEDVGVYYCSQNTHVPPTFGQGTKVEIERTVAAPSVFIFPPSDEQLKSGTASVVCLLNNFYPREAKVQWKVDNALQSGNSQESVTEQDSKDSTYSLSSTLTLSKADYEKHKVYACEVTHQGLSSPVTKSFNRGEC | 105 % (GpH7-A5/GpH7-B3/GpL16-k0 = 100) | –

Second part, the binder after the results:

He/Con_2aR | Ho/Con_2aR | Binder
126 % (GpH7-A5/GpH7-B3/GpL16-k0 = 100) | – | GpH7-A5/GpH7-B3 variant G237_02A/GpL16-k0 (antibody, human IgG1, kappa, also called He Ab G237_02A) heavy 1: not shown heavy 2: not shown light: DIVMTQSPLSLPVTPGEPASISCQASESLVHSNRNTYLHWYLQKPGQSPQLLIYKVSNRFSGVPDRFSGSGSGTDFTLKISRVEAEDVGVYYCSQNTHVPPTFGQGTKVEIERTVAAPSVFIFPPSDEQLKSGTASVVCLLNNFYPREAKVQWKVDNALQSGNSQESVTEQDSKDSTYSLSSTLTLSKADYEKHKVYACEVTHQGLSSPVTKSFNRGEC
– | 89.1 % (GpH7-B3/GpL16-k0 = 100) | GpH7-B3 variant P331_03V/GpL16-k0 (antibody, human IgG1, kappa, also called Ho Ab P331_03V) heavy: not shown light: DIVMTQSPLSLPVTPGEPASISCQASESLVHSNRNTYLHWYLQKPGQSPQLLIYKVSNRFSGVPDRFSGSGSGTDFTLKISRVEAEDVGVYYCSQNTHVPPTFGQGTKVEIERTVAAPSVFIFPPSDEQLKSGTASVVCLLNNFYPREAKVQWKVDNALQSGNSQESVTEQDSKDSTYSLSSTLTLSKADYEKHKVYACEVTHQGLSSPVTKSFNRGEC
103 % (GpH7-A5/GpH7-B3/GpL16-k0 = 100) | – | GpH7-A5/GpH7-B3 variant G236_14T/GpL16-k0 (antibody, human IgG1, kappa, also called He Ab G236_14T) heavy 1: not shown heavy 2: not shown light: DIVMTQSPLSLPVTPGEPASISCQASESLVHSNRNTYLHWYLQKPGQSPQLLIYKVSNRFSGVPDRFSGSGSGTDFTLKISRVEAEDVGVYYCSQNTHVPPTFGQGTKVEIERTVAAPSVFIFPPSDEQLKSGTASVVCLLNNFYPREAKVQWKVDNALQSGNSQESVTEQDSKDSTYSLSSTLTLSKADYEKHKVYACEVTHQGLSSPVTKSFNRGEC
– | 102 % (GpH7-B3/GpL16-k0 = 100) | GpH7-B3 variant P331_02A/GpL16-k0 (antibody, human IgG1, kappa, also called Ho Ab P331_02A) heavy: not shown light: DIVMTQSPLSLPVTPGEPASISCQASESLVHSNRNTYLHWYLQKPGQSPQLLIYKVSNRFSGVPDRFSGSGSGTDFTLKISRVEAEDVGVYYCSQNTHVPPTFGQGTKVEIERTVAAPSVFIFPPSDEQLKSGTASVVCLLNNFYPREAKVQWKVDNALQSGNSQESVTEQDSKDSTYSLSSTLTLSKADYEKHKVYACEVTHQGLSSPVTKSFNRGEC
